Test results reported in patent publication US20150344570A1 (published 2015).
Changes are numbered by the printed parent chain. Names and notes keep the numbering of the source.

How the values were obtained:
[1] = target: T1, FcgRIIIa F (FcγRIIIa type F) extracellular domain with C-terminal His tag (human, UniProt P08637 17-208); test: SPR (Biacore); relative binding activity of the heterodimerized antibody with the alteration in one H chain
T1 construct: extracellular domain; also called FcγRIIIa F; 3aF; not shown: His tag attached to the C terminus
T1 sequence (P08637 17-208): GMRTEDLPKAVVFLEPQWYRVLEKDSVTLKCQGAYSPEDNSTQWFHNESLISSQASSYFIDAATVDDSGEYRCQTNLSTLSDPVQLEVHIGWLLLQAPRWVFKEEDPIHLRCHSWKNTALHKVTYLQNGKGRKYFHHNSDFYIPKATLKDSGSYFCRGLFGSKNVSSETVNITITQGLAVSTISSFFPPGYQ

[2] = target: T2, FcgRIIIaV (human, UniProt P08637 17-208); test: SPR (Biacore); KD of H240-Kn120/H240-Hl068/L73-k0 divided by KD of the sample
T2 construct: extracellular domain; Allotype V158; also called FcγRIIIa V; not shown: His tag attached to the C terminus
Experimental: (§1) Analysis of interaction between objective antibody and the FcγR was carried out using Biacore T100 (GE Healthcare), Biacore T200, Biacore A100, and Biacore 4000. HBS-EP+ (GE Healthcare) was used as the running buffer, and the measurement temperature was set to 25° C. Chips produced by immobilizing the antigen peptide by the amine coupling method to a Series S sensor Chip CM5 (GE Healthcare), chips produced by allowing preliminarily biotinylated antigen peptides to interact with and immobilize onto a Series S Sensor Chip SA (certified) (GE Healthcare), chips produced by immobilizing Protein L (ACTIGEN, BioVision) to Series S Sencor Chip CM5 (GE Healthcare), or chips produced by immobilizing Protein A/G (Thermo Scientific) to Series S Sencor Chip CM5 (GE Healthcare) were used. Antibodies of interest were captured onto these chips, and allowed to interact to each FcγR diluted with running buffer. To regenerate and repeatedly use the chip, the antibodies captured onto the chip were washed off by reacting 10 mM glycine-HCl, pH 1.5.
T2 sequence (P08637 17-208 F176V limits assumed): as the sequence (P08637 17-208) above, with F160V counted along it

[3] = target: T3, FcgRIIb (human, UniProt P31994 43-217); test: as above
T3 construct: extracellular domain; also called FcγRIIb; CD32B; not shown: His tag attached to the C terminus
T3 sequence (looked up): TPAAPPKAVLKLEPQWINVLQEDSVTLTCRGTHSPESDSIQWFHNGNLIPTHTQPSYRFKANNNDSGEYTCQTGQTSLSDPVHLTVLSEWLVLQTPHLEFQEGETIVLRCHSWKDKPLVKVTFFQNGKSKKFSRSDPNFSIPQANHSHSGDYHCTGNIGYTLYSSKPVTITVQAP
Experimental: as §1

[4] = target: T4, FcgRIIaR (human, UniProt P12318 34-217); test: as above
T4 construct: extracellular domain; Allotype R131; also called FcγRIIa R; FcgRIIa type R; not shown: His tag attached to the C terminus
T4 sequence (looked up): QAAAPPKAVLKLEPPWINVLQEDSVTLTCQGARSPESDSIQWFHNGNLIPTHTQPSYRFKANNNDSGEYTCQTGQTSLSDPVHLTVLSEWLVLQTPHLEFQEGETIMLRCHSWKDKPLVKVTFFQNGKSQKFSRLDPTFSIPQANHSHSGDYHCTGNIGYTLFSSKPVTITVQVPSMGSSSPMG
Experimental: as §1

[5] = target: T5, FcgRIa (human, UniProt P12314 16-292); test: as above
T5 construct: extracellular domain; Soluble extracellular domain expressed in FreeStyle293 cells; also called FcγRIa; FcγRI; not shown: His tag attached to the C terminus
T5 sequence (P12314 16-292): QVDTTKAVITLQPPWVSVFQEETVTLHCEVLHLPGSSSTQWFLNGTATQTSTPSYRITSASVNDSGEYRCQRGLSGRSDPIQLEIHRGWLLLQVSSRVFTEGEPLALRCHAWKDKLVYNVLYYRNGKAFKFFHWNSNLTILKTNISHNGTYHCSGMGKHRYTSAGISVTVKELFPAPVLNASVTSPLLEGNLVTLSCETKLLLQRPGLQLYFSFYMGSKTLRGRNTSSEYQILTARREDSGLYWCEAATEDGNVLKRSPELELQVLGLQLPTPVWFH
Experimental: as §1

[6] = target: T6, FcgRIIaH (human, UniProt P12318 34-217); test: as above
T6 construct: extracellular domain; Allotype H131; also called FcγRIIa H; FcgRIIa type H; not shown: His tag attached to the C terminus
T6 sequence (looked up): T4 sequence (looked up) with R134H
Experimental: as §1

[7] = target: T7, FcgRIIIaV (human, UniProt P08637 17-208); test: SPR (Biacore); KD of H240-Kn033/H240-Hl033/L73-k0 divided by KD of the variant
T7 construct: extracellular domain; Polymorphic site after J. Clin. Invest; also called FcγRIIIa V; 3aV; not shown: His tag at the C terminus
Experimental: (§2) Next, the amino acid at position 330 was examined. The A330M alteration has been introduced into H240-Hl076 of H240-Kn125/H240-Hl076/L73-k0. […] L73-k0 was used as the common antibody L chain. Binding of the produced variants to FcgRIa, FcgRIIaR, FcgRIIaH, FcgRIIb, FcgRIIIaF, and FcgRIIIaV was measured according to the method of Reference Example 8.
as §1
T7 sequence (P08637 17-208 F176V limits assumed): as the sequence (P08637 17-208) above, with F160V counted along it

[8] = target: T8, FcgRIIIaF (human, UniProt P08637 17-208); test: as above
T8 construct: extracellular domain; Polymorphic site after J. Clin. Invest; also called FcγRIIIa F; 3aF; not shown: His tag at the C terminus
T8 sequence (P08637 17-208): as the sequence (P08637 17-208) above
Experimental: as §2, §1

[9] = target: T9, FcgRIIb (human, UniProt P31994 43-217); test: as above
T9 construct: extracellular domain; also called FcγRIIb; 2b; not shown: His tag at the C terminus
T9 sequence (looked up): T3 sequence (looked up)
Experimental: as §2, §1

[10] = target: T10, FcgRIIaR (human, UniProt P12318 34-217); test: as above
T10 construct: extracellular domain; also called FcγRIIa R; FcγRIIa type R; not shown: His tag at the C terminus
T10 sequence (looked up): T4 sequence (looked up)
Experimental: as §2, §1

[11] = target: T11, FcgRIIaH (human, UniProt P12318 34-217); test: as above
T11 construct: extracellular domain; also called FcγRIIa H; FcγRIIa type H; not shown: His tag at the C terminus
T11 sequence (looked up): T4 sequence (looked up) with R134H
Experimental: as §2, §1

B1: GpH7-A5/GpH7-B3 variant (A330P)/GpL16-k0 (antibody, human IgG1, kappa)
heavy 1: not shown
heavy 2: not shown
light: DIVMTQSPLSLPVTPGEPASISCQASESLVHSNRNTYLHWYLQKPGQSPQLLIYKVSNRFSGVPDRFSGSGSGTDFTLKISRVEAEDVGVYYCSQNTHVPPTFGQGTKVEIERTVAAPSVFIFPPSDEQLKSGTASVVCLLNNFYPREAKVQWKVDNALQSGNSQESVTEQDSKDSTYSLSSTLTLSKADYEKHKVYACEVTHQGLSSPVTKSFNRGEC
notes: also called He Ab A330_05P
In the case of B1, the He/Con_3aF [1] is reported as 152 % of GpH7-A5/GpH7-B3/GpL16-k0 (= 100).

B2: GpH7-A5/GpH7-B3 variant (H268A)/GpL16-k0 (antibody, human IgG1, kappa)
heavy 1: not shown
heavy 2: not shown
light: B1 light
notes: also called He Ab H268_02A
For B2, the He/Con_3aF [1] was 121 % of GpH7-A5/GpH7-B3/GpL16-k0 (= 100).

B3: GpH7-A5/GpH7-B3 variant (H268E)/GpL16-k0 (antibody, human IgG1, kappa)
heavy 1: not shown
heavy 2: not shown
light: B1 light
notes: also called He Ab H268_10E
B3 was tested, and the He/Con_3aF [1] was 184 % of GpH7-A5/GpH7-B3/GpL16-k0 (= 100).

B4: GpH7-A5/GpH7-B3 variant (K326D)/GpL16-k0 (antibody, human IgG1, kappa)
heavy 1: not shown
heavy 2: not shown
light: B1 light
notes: also called He Ab K326_09D
In the case of B4, the He/Con_3aF [1] is reported as 148 % of GpH7-A5/GpH7-B3/GpL16-k0 (= 100).

B5: GpH7-A5/GpH7-B3 variant (K326I)/GpL16-k0 (antibody, human IgG1, kappa)
heavy 1: not shown
heavy 2: not shown
light: B1 light
notes: also called He Ab K326_07I
In the case of B5, the He/Con_3aF [1] is reported as 153 % of GpH7-A5/GpH7-B3/GpL16-k0 (= 100).

B6: GpH7-A5/GpH7-B3 variant (K326T)/GpL16-k0 (antibody, human IgG1, kappa)
heavy 1: not shown
heavy 2: not shown
light: B1 light
notes: also called He Ab K326_14T
For B6, the He/Con_3aF [1] was 140 % of GpH7-A5/GpH7-B3/GpL16-k0 (= 100).

B7: GpH7-A5/GpH7-B3 variant (K334D)/GpL16-k0 (antibody, human IgG1, kappa)
heavy 1: not shown
heavy 2: not shown
light: B1 light
notes: also called He Ab K334_09D
B7 was tested, and the He/Con_3aF [1] was 164 % of GpH7-A5/GpH7-B3/GpL16-k0 (= 100).

B8: GpH7-A5/GpH7-B3 variant (K334E)/GpL16-k0 (antibody, human IgG1, kappa)
heavy 1: not shown
heavy 2: not shown
light: B1 light
notes: also called He Ab K334_10E
B8 was tested, and the He/Con_3aF [1] was 186 % of GpH7-A5/GpH7-B3/GpL16-k0 (= 100).

B9: GpH7-A5/GpH7-B3 variant (K334I)/GpL16-k0 (antibody, human IgG1, kappa)
heavy 1: not shown
heavy 2: not shown
light: B1 light
notes: also called He Ab K334_07I
B9 was tested, and the He/Con_3aF [1] was 156 % of GpH7-A5/GpH7-B3/GpL16-k0 (= 100).

B10: GpH7-A5/GpH7-B3-15-02A/GpL16-k0 (antibody, human IgG1, kappa)
heavy 1: not shown
heavy 2: not shown
light: B1 light
notes: also called GpH7-A5/GpH7-B3 variant (S298A)/GpL16-k0; He Ab S298_02A
For B10, the He/Con_3aF [1] was 151 % of GpH7-A5/GpH7-B3/GpL16-k0 (= 100).

B11: H240-Kn149/H240-Hl068/L73-k0 (antibody, human IgG1, kappa)
heavy 1: QDQLVQSGAEVKKPGASVKVSCKASGFNIKDTYIQWVRQAPGQGLEWMGRIDPLRKQTKYREKFEGRVTITADTSTNTAYMELSSLRSEDTAVYYCVRSGREFDYWGQGTLVTVSSASTKGPSVFPLAPSSKSTSGGTAALGCLVKDYFPEPVTVSWNSGALTSGVHTFPAVLQSSGLYSLSSVVTVPSSSLGTQTYICNVNHKPSNTKVDKKVEPKSCDKTHTCPPCPAPEYYWGPMVFLFPPKPKDTLMISRTPEVTCVVVDVSDEDPEVKFNWYVDGVEVHNAKTKPREEQYNATYRVVSVLTVLHQDWLNGKEYKCKVSNKDWPAPIELTISKAKGQPREPQVCTLPPSRDELTKNQVSLWCLVKGFYPSDIAVEWESNGQPENNYKTTPPVLDSDGSFFLYSKLTVDKSRWQQGNVFSCSVMHEALHNHYTQKSLSLSP
heavy 2: QDQLVQSGAEVKKPGASVKVSCKASGFNIKDTYIQWVRQAPGQGLEWMGRIDPLRKQTKYREKFEGRVTITADTSTNTAYMELSSLRSEDTAVYYCVRSGREFDYWGQGTLVTVSSASTKGPSVFPLAPSSKSTSGGTAALGCLVKDYFPEPVTVSWNSGALTSGVHTFPAVLQSSGLYSLSSVVTVPSSSLGTQTYICNVNHKPSNTKVDKKVEPKSCDKTHTCPPCPAPELLGGPSVFLFPPKPKDTLMISRTPEVTCVVVDVSHEEPEVKFNWYVDGVEVHNAKTKPREEQYNSTYRVVSVLTVLHQDWLNGKEYKCKVSNDALPKPIEETISKAKGQPREPQVYTLPPSRCELTKNQVSLSCAVKGFYPSDIAVEWESNGQPENNYKTTPPVLDSDGSFFLVSKLTVDKSRWQQGNVFSCSVMHEALHNHYTQKSLSLSP
light: DIQMTQSPSSLSASVGDRVTITCRASQDIHKYIAWYQQKPGQAPRLLIQYTSTLQPGVPSRFSGSGSGTDYTFTISSLQPEDIATYYCLQYEQLRTFGGGTKVEIKRTVAAPSVFIFPPSDEQLKSGTASVVCLLNNFYPREAKVQWKVDNALQSGNSQESVTEQDSKDSTYSLSSTLTLSKADYEKHKVYACEVTHQGLSSPVTKSFNRGEC
notes: Heterodimerized anti-epiregulin IgG1 antibody; L328W and K334L in H240-Kn120
With B11 the “relative KD” value [2] was 1.1, the “relative KD” value [3] was 1 and the “relative KD” value [4] was 1.1. The “relative KD” value [5] was 0.4 and the “relative KD” value [6] was 1.6.

B12: H240-Kn033/H240-Hl033/L73-k0 (antibody, human IgG1, kappa)
heavy 1: not shown
heavy 2: not shown
light: B11 light
notes: Anti-epiregulin IgG1 with knobs-into-holes alterations only
In the case of B12, the “fold 3aV” value [7] is reported as 1 fold, the “fold 3aF” value [8] is reported as 1 fold and the “fold 2b” value [9] is reported as 1 fold. For the same binder, the “fold 2aR” value [10] was 1 fold and the “fold 2aH” value [11] was 1 fold.

B13: H240-Kn032/H240-Hl032/L73-k0 (antibody, human IgG1, kappa)
heavy 1: QDQLVQSGAEVKKPGASVKVSCKASGFNIKDTYIQWVRQAPGQGLEWMGRIDPLRKQTKYREKFEGRVTITADTSTNTAYMELSSLRSEDTAVYYCVRSGREFDYWGQGTLVTVSSASTKGPSVFPLAPSSKSTSGGTAALGCLVKDYFPEPVTVSWNSGALTSGVHTFPAVLQSSGLYSLSSVVTVPSSSLGTQTYICNVNHKPSNTKVDKKVEPKSCDKTHTCPPCPAPELLGGPDVFLFPPKPKDTLMISRTPEVTCVVVDVSHEDPEVKFNWYVDGVEVHNAKTKPREEQYNSTYRVVSVLTVLHQDWLNGKEYKCKVSNKALPLPEEKTISKAKGQPREPQVCTLPPSRDELTKNQVSLWCLVKGFYPSDIAVEWESNGQPENNYKTTPPVLDSDGSFFLYSKLTVDKSRWQQGNVFSCSVMHEALHNHYTQKSLSLSP
heavy 2: B13 heavy 1 with C348Y, D355C, W365S, L367A, Y406V
light: B11 light
notes: S239D/A330L/I332E in both H chains
With B13 the “fold 3aV” value [7] was 15.5 fold, the “fold 3aF” value [8] was 31.9 fold and the “fold 2b” value [9] was 5.3 fold. For the same binder, the “fold 2aR” value [10] was 2.2 fold and the “fold 2aH” value [11] was 0.8 fold.
